Measured values reported in patent US20240270846A1 (published 2024).

Molecular target: T1, CD3 epsilon homodimer protein (UniProt P07766 23-126)
T1 construct: construct not described; homodimer as printed; also called CD3 (CD3 epsilon)
Experiment: SPR Biacore T200, CD3 epsilon homodimer immobilized; vs unaltered GLS3000;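 further: antibody variants flowed as analyte over CD3 epsilon homodimer amine-coupled to a CM4 chip, at 25 °C in HBS-EP+ running buffer, fitted with Biacore T200 Evaluation Software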

T1 sequence (P07766 23-126): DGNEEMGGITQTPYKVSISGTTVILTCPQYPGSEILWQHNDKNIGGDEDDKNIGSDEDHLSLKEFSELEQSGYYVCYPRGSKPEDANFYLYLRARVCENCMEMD

Row | KD ratio to GLS3000 (Affinity up) | Binder
1 | 12.7 | GLS3000 N30T (Kabat) L chain altered form, one-arm antibody with CE115HA000 (antibody, human IgG1, kappa, L234A L235A, N297A, name in Kabat numbering, one-arm antibody) heavy: QVQLVESGGGVVQPGRSLRLSCAASGFTFSNAWMHWVRQAPGKGLEWVAQIKAKSNNYATYYAESVKGRFTISRDDSKNSLYLQMNSLKTEDTAVYYCRYVHYGAYYGVDAWGQGTTVTVSSASTKGPSVFPLAPSSKSTSGGTAALGCLVKDYFPEPVTVSWNSGALTSGVHTFPAVLQSSGLYSLSSVVTVPSSSLGTQTYICNVNHKPSNTKVDKKVEPKSCDKTHTCPPCPAPEAAGGPSVFLFPPKPKDTLMISRTPEVTCVVVDVSHEDPEVKFNWYVDGVEVHNAKTKPREEQYASTYRVVSVLTVLHQDWLNGKEYKCKVSNKALPAPIEKTISKAKGQPREPQVYTLPPSRCELTKNQVSLSCAVKGFYPSDIAVEWESNGQPENNYKTTPPVLDSDGSFFLVSKLTVDKSRWQQGNVFSCSVMHEALHNHYTQKSLSLSPDYKDDDDK EPKSSDKTHTCPPCPAPELLGGPSVFLFPPKPKDTLMISRTPEVTCVVVDVSHEDPEVKFNWYVDGVEVHNAKTKPREEQYNSTYRVVSVLTVLHQDWLNGKEYKCKVSNKALPAPIEKTISKAKGQPREPQVCTLPPSRDELTKNQVSLWCLVKGFYPSDIAVEWESNGQPENNYKTTPPVLDSDGSFFLYSKLTVDKSRWQQGNVFSCSVMHEALHNRYTQKSLSLSP light: DIVMTQSPLSLPVTPGEPASISCRSSQSLVHSNRTTYLHWYQQKPGQAPRLLIYKVSNRFSGVPDRFSGSGSGTDFTLKISRVEAEDVGVYYCGQGTQVPYTFGQGTKLEIKRTVAAPSVFIFPPSDEQLKSGTASVVCLLNNFYPREAKVQWKVDNALQSGNSQESVTEQDSKDSTYSLSSTLTLSKADYEKHKVYACEVTHQGLSSPVTKSFNRGEC
2 | 2.62 | GLS3000 N30V (Kabat) L chain altered form, one-arm antibody with CE115HA000 (antibody, human IgG1, kappa, L234A L235A, N297A, name in Kabat numbering, one-arm antibody) heavy: QVQLVESGGGVVQPGRSLRLSCAASGFTFSNAWMHWVRQAPGKGLEWVAQIKAKSNNYATYYAESVKGRFTISRDDSKNSLYLQMNSLKTEDTAVYYCRYVHYGAYYGVDAWGQGTTVTVSSASTKGPSVFPLAPSSKSTSGGTAALGCLVKDYFPEPVTVSWNSGALTSGVHTFPAVLQSSGLYSLSSVVTVPSSSLGTQTYICNVNHKPSNTKVDKKVEPKSCDKTHTCPPCPAPEAAGGPSVFLFPPKPKDTLMISRTPEVTCVVVDVSHEDPEVKFNWYVDGVEVHNAKTKPREEQYASTYRVVSVLTVLHQDWLNGKEYKCKVSNKALPAPIEKTISKAKGQPREPQVYTLPPSRCELTKNQVSLSCAVKGFYPSDIAVEWESNGQPENNYKTTPPVLDSDGSFFLVSKLTVDKSRWQQGNVFSCSVMHEALHNHYTQKSLSLSPDYKDDDDK EPKSSDKTHTCPPCPAPELLGGPSVFLFPPKPKDTLMISRTPEVTCVVVDVSHEDPEVKFNWYVDGVEVHNAKTKPREEQYNSTYRVVSVLTVLHQDWLNGKEYKCKVSNKALPAPIEKTISKAKGQPREPQVCTLPPSRDELTKNQVSLWCLVKGFYPSDIAVEWESNGQPENNYKTTPPVLDSDGSFFLYSKLTVDKSRWQQGNVFSCSVMHEALHNRYTQKSLSLSP light: DIVMTQSPLSLPVTPGEPASISCRSSQSLVHSNRVTYLHWYQQKPGQAPRLLIYKVSNRFSGVPDRFSGSGSGTDFTLKISRVEAEDVGVYYCGQGTQVPYTFGQGTKLEIKRTVAAPSVFIFPPSDEQLKSGTASVVCLLNNFYPREAKVQWKVDNALQSGNSQESVTEQDSKDSTYSLSSTLTLSKADYEKHKVYACEVTHQGLSSPVTKSFNRGEC
